Assay results as given in patent US20050013808A1, “Nitroreductase enzymes” (priority 2001, published 2005).
Where “and” joins values, the source holds several entries; their conditions need not be identical. Identical values can stand only once.

Legend:
[1] = system: UT5600 cells (NTR−) lysogens; assay: Replica-plate screening of mutant NTR-expressing lysogens on increasing CB1954 (growth score); type: cell-based, E. coli; set-up: key to Score: 0: Good growth on all concentrations of CB 1954 = vector; Good growth on 100 and 200, faint on 300, ring of growth on 400 μM; Good growth on 100 and 200, ring growth on 300, none or very faint on 400 μM; Good growth on 100, faint to good on 200, none or very faint on 300 and 400 μM; 4: Good growth on 100 μM, none to ring growth on 200 μM = wild type; Good growth on 50 μM, ring on 100 μM, none on 200, 300 or 400 μM; 6: Faint growth on 50 μM, ring on 100 μM; 7: Good growth on 50 μM, none on 100 μM; 8: Ring growth on 50 μM, none on 100 μM; 9: None or very faint growth on 50 μM, none on 100 μM; 10: None or ring growth on 35 μM; conditions: growth of lysogens on agar with kanamycin, IPTG and 0-400 μM CB1954; wild type = 4, higher = more sensitive
Method: The ligation mix was packaged (Stratagene) into lambda bacteriophage particles that were used to infect UT5600 cells (NTR ^−). As a control wild type NTR was also cloned into this vector (JG16C2). Kanamycin resistant lysogens were selected on agar plates ([…] kanamycin) then individually grown overnight in a well of a 96-well plate in LB+Kanamycin. The clones were replica plated on to a series of plates containing Tris-buffered (50 mM, pH 7.5) LB agar with kanamycin, IPTG (0.1 mM) and CB1954 at a concentration of 0, 25, 35, 50, 100, 200, 300 or 400 μM (see FIG. 3). […]

[2] = system: UT5600 cells (NTR−) lysogens; assay: Survival curve (colony count) IC50 of CB1954 in NTR-expressing lysogens; type: cell-based, E. coli; conditions: concentration of CB1954 giving 50% reduction in colony number after 36h growth; lysogen expressing the named NTR
Method: To quantify the improvement in NTR activity in the clones in a less subjective way, a few clones were selected for further study by determining their survival curves. The lysogens were grown overnight in LB +kanamycin and diluted to approximately 1 cell per μl based on the OD. In duplicate, 100 μl diluted cells were plated into Tris-buffered LB plates containing kanamycin, IPTG and 0-400 μM CB1954. After 36h growth the number of colonies on each plate were counted and expressed as a percentage of the number present on the plates with no CB1954. Survival curves showing % survival versus concentration of CB 1954 were plotted (see examples in FIG. 7) and the IC50 determined as the concentration of CB 1954 which kills gives a 50% reduction in colony number (Table 3 and FIG. 8). A few clones containing mutations resulting in an enhanced sensitivity to CB 1954 were selected for further study.

B1: Y68N (protein)
chain: MDIISVALKRHSTKAFDASKKLTPEQAEQIKTLLQYSPSSTNSQPWHFIVASTEEGKARVAKSAAGNNVFNERKMLDASHVVVFCAKTAMDDVWLKLVVDQEDADGRFATPEAKAANDKGRKFFADMHRKDLHDDAEWMAKQVYLNVGNFLLGVAALGLDAVPIEGFDAAILDAEFGLKEKGYTSLVVVPVGHHSVEDFNATLPKSRLPQNITLTEV
[1]
  Score: 5-7
[2]
  IC50: 79 µM

B2: S40G (protein)
chain: MDIISVALKRHSTKAFDASKKLTPEQAEQIKTLLQYSPSGTNSQPWHFIVASTEEGKARVAKSAAGNYVFNERKMLDASHVVVFCAKTAMDDVWLKLVVDQEDADGRFATPEAKAANDKGRKFFADMHRKDLHDDAEWMAKQVYLNVGNFLLGVAALGLDAVPIEGFDAAILDAEFGLKEKGYTSLVVVPVGHHSVEDFNATLPKSRLPQNITLTEV
[1]
  Score: 5
[2]
  IC50: 90 µM

B3: G120S (protein)
chain: MDIISVALKRHSTKAFDASKKLTPEQAEQIKTLLQYSPSSTNSQPWHFIVASTEEGKARVAKSAAGNYVFNERKMLDASHVVVFCAKTAMDDVWLKLVVDQEDADGRFATPEAKAANDKSRKFFADMHRKDLHDDAEWMAKQVYLNVGNFLLGVAALGLDAVPIEGFDAAILDAEFGLKEKGYTSLVVVPVGHHSVEDFNATLPKSRLPQNITLTEV
[1]
  Score: 4-6
[2]
  IC50: 125 µM

B4: T41G (protein)
chain: MDIISVALKRHSTKAFDASKKLTPEQAEQIKTLLQYSPSSGNSQPWHFIVASTEEGKARVAKSAAGNYVFNERKMLDASHVVVFCAKTAMDDVWLKLVVDQEDADGRFATPEAKAANDKGRKFFADMHRKDLHDDAEWMAKQVYLNVGNFLLGVAALGLDAVPIEGFDAAILDAEFGLKEKGYTSLVVVPVGHHSVEDFNATLPKSRLPQNITLTEV
[1]
  Score: 5-7
[2]
  IC50: 120 µM

B5: Y68G F124Q (protein)
chain: MDIISVALKRHSTKAFDASKKLTPEQAEQIKTLLQYSPSSTNSQPWHFIVASTEEGKARVAKSAAGNGVFNERKMLDASHVVVFCAKTAMDDVWLKLVVDQEDADGRFATPEAKAANDKGRKFQADMHRKDLHDDAEWMAKQVYLNVGNFLLGVAALGLDAVPIEGFDAAILDAEFGLKEKGYTSLVVVPVGHHSVEDFNATLPKSRLPQNITLTEV
[1]
  Score: 4
[2]
  IC50: 143 µM

B6: N71S (protein)
chain: MDIISVALKRHSTKAFDASKKLTPEQAEQIKTLLQYSPSSTNSQPWHFIVASTEEGKARVAKSAAGNYVFSERKMLDASHVVVFCAKTAMDDVWLKLVVDQEDADGRFATPEAKAANDKGRKFFADMHRKDLHDDAEWMAKQVYLNVGNFLLGVAALGLDAVPIEGFDAAILDAEFGLKEKGYTSLVVVPVGHHSVEDFNATLPKSRLPQNITLTEV
[1]
  Score: 7
[2]
  IC50: 55 µM

B7: G120A (protein)
chain: MDIISVALKRHSTKAFDASKKLTPEQAEQIKTLLQYSPSSTNSQPWHFIVASTEEGKARVAKSAAGNYVFNERKMLDASHVVVFCAKTAMDDVWLKLVVDQEDADGRFATPEAKAANDKARKFFADMHRKDLHDDAEWMAKQVYLNVGNFLLGVAALGLDAVPIEGFDAAILDAEFGLKEKGYTSLVVVPVGHHSVEDFNATLPKSRLPQNITLTEV
[1]
  Score: 4-5
[2]
  IC50: 160 µM

B8: S40T (protein)
chain: MDIISVALKRHSTKAFDASKKLTPEQAEQIKTLLQYSPSTTNSQPWHFIVASTEEGKARVAKSAAGNYVFNERKMLDASHVVVFCAKTAMDDVWLKLVVDQEDADGRFATPEAKAANDKGRKFFADMHRKDLHDDAEWMAKQVYLNVGNFLLGVAALGLDAVPIEGFDAAILDAEFGLKEKGYTSLVVVPVGHHSVEDFNATLPKSRLPQNITLTEV
[1]
  Score: 5
[2]
  IC50: 102 µM

B9: N71D (protein)
chain: MDIISVALKRHSTKAFDASKKLTPEQAEQIKTLLQYSPSSTNSQPWHFIVASTEEGKARVAKSAAGNYVFDERKMLDASHVVVFCAKTAMDDVWLKLVVDQEDADGRFATPEAKAANDKGRKFFADMHRKDLHDDAEWMAKQVYLNVGNFLLGVAALGLDAVPIEGFDAAILDAEFGLKEKGYTSLVVVPVGHHSVEDFNATLPKSRLPQNITLTEV
[1]
  Score: 5
[2]
  IC50: 110 µM

B10: Y68G F124W (protein)
chain: MDIISVALKRHSTKAFDASKKLTPEQAEQIKTLLQYSPSSTNSQPWHFIVASTEEGKARVAKSAAGNGVFNERKMLDASHVVVFCAKTAMDDVWLKLVVDQEDADGRFATPEAKAANDKGRKFWADMHRKDLHDDAEWMAKQVYLNVGNFLLGVAALGLDAVPIEGFDAAILDAEFGLKEKGYTSLVVVPVGHHSVEDFNATLPKSRLPQNITLTEV
[1]
  Score: 5-7
[2]
  IC50: 69 µM

B11: Y68W (protein)
chain: MDIISVALKRHSTKAFDASKKLTPEQAEQIKTLLQYSPSSTNSQPWHFIVASTEEGKARVAKSAAGNWVFNERKMLDASHVVVFCAKTAMDDVWLKLVVDQEDADGRFATPEAKAANDKGRKFFADMHRKDLHDDAEWMAKQVYLNVGNFLLGVAALGLDAVPIEGFDAAILDAEFGLKEKGYTSLVVVPVGHHSVEDFNATLPKSRLPQNITLTEV
[1]
  Score: 4-5
[2]
  IC50: 108 µM

B12: S40A (protein)
chain: MDIISVALKRHSTKAFDASKKLTPEQAEQIKTLLQYSPSATNSQPWHFIVASTEEGKARVAKSAAGNYVFNERKMLDASHVVVFCAKTAMDDVWLKLVVDQEDADGRFATPEAKAANDKGRKFFADMHRKDLHDDAEWMAKQVYLNVGNFLLGVAALGLDAVPIEGFDAAILDAEFGLKEKGYTSLVVVPVGHHSVEDFNATLPKSRLPQNITLTEV
[1]
  Score: 5-7
[2]
  IC50: 100 µM and 84 µM
